Test results published in paper PMC6265302, “Widespread bacterial lysine degradation proceeding via glutarate and L-2-hydroxyglutarate” (Nature Communications, 2018).

Tests used:
[1] = substrate: O=C(O)CCC(=O)C(=O)O; assay: O2 consumption, Clark electrode; assay type: biochemical, Escherichia coli; settings: 5 mM glutarate, 4 µM Fe(NH4)2SO4, 400 µM ascorbate, MOPS pH 7.2, 30 °C
[2] = substrate: O=C(O)CCCC(=O)O; assay: O2 consumption, Clark electrode; assay type: biochemical, Escherichia coli; settings: 1 mM α-ketoglutarate, 4 µM Fe(NH4)2SO4, 400 µM ascorbate, MOPS pH 7.2, 30 °C
[3] = substrate: NCCCCC(=O)O; assay: purified protein; assay type: biochemical, Escherichia coli; settings: coupled with GabD (rate-limiting dehydrogenase), 5 mM α-ketoglutarate, 500 µM NADP+, pH 8.0, room temperature
[4] = substrate: NCCCC(=O)O; assay: purified protein; settings: coupled with GabD (rate-limiting dehydrogenase), 5 mM α-ketoglutarate, 500 µM NADP+, pH 8.0, room temperature
[5] = substrate: NCCCCN; assay: purified protein; assay type: biochemical, Escherichia coli; settings: coupled with PatD (rate-limiting dehydrogenase), 5 mM α-ketoglutarate, 500 µM NAD+, pH 8.0, room temperature
[6] = substrate: NCCCCCN; assay: purified protein; assay type: biochemical, Escherichia coli; settings: coupled with PatD (rate-limiting dehydrogenase), 5 mM α-ketoglutarate, 500 µM NAD+, pH 8.0, room temperature

B1: CsiD (Escherichia coli K-12) (protein)
chain: MNALTAVQNNAVDSGQDYSGFTLTPSAQSPRLLELTFTEQTTKQFLEQVAEWPVQALEYKSFLRFRVAKILDDLCANQLQPLLLKTLLNRAEGALLINAVGVDDVKQADEMVKLATAVAHLIGRSNFDAMSGQYYARFVVKNVDNSDSYLRQPHRVMELHNDGTYVEEITDYVLMMKIDEQNMQGGNSLLLHLDDWEHLDNYFRHPLARRPMRFAAPPSKNVSKDVFHPVFDVDQQGRPVMRYIDQFVQPKDFEEGVWLSELSDAIETSKGILSVPVPVGKFLLINNLFWLHGRDRFTPHPDLRRELMRQRGYFAYASNHYQTHQ
notes: full ORF, N-terminal 6xHis tag (pET28a), expressed in E. coli BL21(DE3); Fe(II); homotetramer
In the case of B1, the Km [1] is reported as 100 ± 7 µM and the Km [2] is reported as 650 ± 20 µM.

B2: GabT (Escherichia coli K-12) (protein)
chain: MNSNKELMQRRSQAIPRGVGQIHPIFADRAENCRVWDVEGREYLDFAGGIAVLNTGHLHPKVVAAVEAQLKKLSHTCFQVLAYEPYLELCEIMNQKVPGDFAKKTLLVTTGSEAVENAVKIARAATKRSGTIAFSGAYHGRTHYTLALTGKVNPYSAGMGLMPGHVYRALYPCPLHGISEDDAIASIHRIFKNDAAPEDIAAIVIEPVQGEGGFYASSPAFMQRLRALCDEHGIMLIADEVQSGAGRTGTLFAMEQMGVAPDLTTFAKSIAGGFPLAGVTGRAEVMDAVAPGGLGGTYAGNPIACVAALEVLKVFEQENLLQKANDLGQKLKDGLLAIAEKHPEIGDVRGLGAMIAIELFEDGDHNKPDAKLTAEIVARARDKGLILLSCGPYYNVLRILVPLTIEDAQIRQGLEIISQCFDEAKQ
notes: full ORF, N-terminal 6xHis tag (pET28a), expressed in E. coli BL21(DE3); assayed coupled with GabD
Work on B2 yielded a Km [3] of 439 ± 29 µM and a Km [4] of 197 ± 27 µM.

B3: PatA (Escherichia coli K-12) (protein)
chain: MNRLPSSASALACSAHALNLIEKRTLDHEEMKALNREVIEYFKEHVNPGFLEYRKSVTAGGDYGAVEWQAGSLNTLVDTQGQEFIDCLGGFGIFNVGHRNPVVVSAVQNQLAKQPLHSQELLDPLRAMLAKTLAALTPGKLKYSFFCNSGTESVEAALKLAKAYQSPRGKFTFIATSGAFHGKSLGALSATAKSTFRKPFMPLLPGFRHVPFGNIEAMRTALNECKKTGDDVAAVILEPIQGEGGVILPPPGYLTAVRKLCDEFGALMILDEVQTGMGRTGKMFACEHENVQPDILCLAKALGGGVMPIGATIATEEVFSVLFDNPFLHTTTFGGNPLACAAALATINVLLEQNLPAQAEQKGDMLLDGFRQLAREYPDLVQEARGKGMLMAIEFVDNEIGYNFASEMFRQRVLVAGTLNNAKTIRIEPPLTLTIEQCELVIKAARKALAAMRVSVEEA
notes: purified enzyme, cloning not described in main text; assayed coupled with PatD
Work on B3 yielded a Km [5] of 1430 ± 70 µM and a Km [6] of 370 ± 50 µM.
